Assay results: US20110182926A1, “[…]” (priority 2008, published 2011)
One block for each molecule: values may come before it.

Tests used:
[1] = molecular target: T1, HLA-A*0201 (Homo sapiens, UniProt P04439, D140Y/D185E/D98H/E176V/E277Q/G131W/G231S/I119V/I121R/I166T/I218V/L300P/L318F/N151K/N90K/P208A/P217A/Q86G/Q94H/R138H/R169H/T345S); assay: In vitro cellular binding assay of CEA peptides on TAP-deficient T2 cells (FACS); settings: 50 μM peptide, 18 hours at 37° C., FIG. 3
Method: To determine the binding ability of EI Suite-selected wild type peptides and analogs, an in vitro cellular binding assay was performed using the TAP-deficient cell line T2. T2 cells are HLA-A*0201 positive, MHC class II negative and TAP deficient, meaning that they lack a functional transporter associated with antigen presentation, so that they accumulate empty unstable class I molecules.
T2 cells were incubated with 50 μM peptide in serum-free RPMI 1640 supplemented with 5 μg/mL human β2m (Fluka) for 18 hours at 37° C. HLA-A*0201 expression was then measured by flow cytometry using the anti-HLA-A2.1 monoclonal antibody (mAb) BB7.2 followed by incubation with fluorescein isothiocyanate (FITC)-conjugated F(ab′)2 goat antimouse Ig (Biosource). The results are expressed as fluorescence index (FI) defined as a ratio (median channel of fluorescence) between the sample and a control without any peptide. An increase over the control of at least […] (FI>2) was arbitrarily chosen as the cutoff point.

[2] = molecular target: T1, HLA-A*0201; assay: HLA-A*0201/peptide complex stability on T2 cells over time (FACS); format: binding; settings: 50 μM peptide, 0-8 hours, FIG. 4
Method: To assess the HLA-A*0201/peptide complex stability, T2 cells (10^6/mL) were incubated overnight with 50 μM of each peptide in serum-free RPMI 1640 supplemented with 100 ng/mL human β2m at 37° C. Cells were then washed 4 times to remove free peptides, incubated for 1 hour with 10 ng/mL Brefeldin A (Sigma-Aldrich) to block cell surface expression of newly synthesized HLA-A*0201 molecules, washed, and incubated at 37° C. for 0, 2, 4, 6, or 8 hours. Subsequently, cells were stained with anti-HLA-A2.1 mAb BB7.2. For each time point, peptide-induced HLA-A*0201 expression was calculated as mean fluorescence value of peptide incubated T2 cells/mean fluorescence value T2 cells in the absence of the peptide. Dissociation complex 50 (DC50) was defined as the time required for the loss of 50% of the HLA-A*0201/peptide complexes stabilized at t=0.
Binding stability of the peptide-MHC complex was also evaluated over time. The CAP-1 peptide was used as positive control.

[3] = tested on: HHD mice; assay: Immunogenicity of additional CEA peptides in HHD mice (Example 9, ICS for IFNγ); format: in vivo; settings: for immunogenicity (immune response against the natural target epitope): 6 HHD mice, 100 μg peptide s.c., two injections, ICS IFNγ three weeks later; for immunogenicity (immune response against the natural target epitope) / fold more immunogenic than the natural peptide: FIG. 7; for fold more immunogenic than the natural peptide: HHD mice, ICS IFNγ
[4] = molecular target: T1, HLA-A*0201; assay: iTopia Epitope Discovery System binding affinity; settings: hTERT analogs; FIG. 8
Method: (§1) Candidate epitopes and analogs are analyzed for the ability to bind to HLA-A*0201in-vitro using iTopia™ Epitope Discovery System (http://www.immunomics.com). This assay provides a method to determine the binding affinity and stability of a test peptide to any of several Class I HLA molecules, using fluorescent-labeled antibody that specifically recognizes HLA only when peptide is bound in the MHC-I groove.
as §1, with “HLA-A*0201 in-vitro” for “HLA-A*0201in-vitro”

[5] = molecular target: T2, HLA-A*0201 (iTopia Epitope Discovery System) (human); assay: iTopia Epitope Discovery System binding assay
T2 construct: Commercial in vitro assay; also called Class I HLA molecule
Description: This assay provides a method to determine the binding affinity and stability of a test peptide to any of several Class I HLA molecules, using fluorescent-labeled antibody that specifically recognizes HLA only when peptide is bound in the MHC-I groove.

[6] = molecular target: T3, HLA-A*0201 on T2 cells (human); assay: T2 cells, 50 uM peptide, surface HLA-A2 by FACS with BB7.2
T3 construct: Empty class I molecule on T2 cells; also called HLA-A2.1; A2.1

[7] = molecular target: T3, HLA-A*0201 on T2 cells; assay: assay not named there (T2 cell binding per paragraph 90)
Method: T2 cells were incubated with 50 μM peptide in serum-free RPMI 1640 supplemented with 5 μg/mL human β2m (Fluka) for 18 hours at 37° C. […] The results are expressed as fluorescence index (FI) defined as a ratio (median channel of fluorescence) between the sample and a control without any peptide. An increase over the control of at least 65% (FI>2) was arbitrarily chosen as the cutoff point.

Molecule: VLYGPDDPTV (Anchor-modified analog) [411V10]
binding to HLA-A*0201 compared to wild-type counterpart [1]: marked increase of binding | stability of peptide-MHC complex compared to wild-type counterpart [2]: improved stability

Molecule: ATVGIMIGV [CEA687]
immunogenicity (immune response against the natural target epitope) [3]: significantly immunogenic | mice responding to the vaccination ([3]; groups of 6 HHD mice): 4 out of 6

Molecule: ALVGIMIGV [CEA687L2]
fold more immunogenic than the natural peptide [3]: about 3.4 fold | mice responded to the treatment ([3]; groups of 6 HHD mice): 100%

Molecule: RLTVTTITV (Anchor-modified analog) [CEA310L2]
immunogenicity (immune response against the natural target epitope) [3]: extremely powerful in eliciting a cross reactive immune response | fold more immunogenic than the natural peptide [3]: 123 fold

Molecule: GLSAGATVGV (Anchor-modified analog) [682V10]
binding to HLA-A*0201 compared to wild-type counterpart [1]: marked increase of binding | stability of peptide-MHC complex compared to wild-type counterpart [2]: improved stability

Molecule: 540.V9: hTERT position 540 9-mer V9 analog of ILAKFLHWL, SEQ ID NO 15 (ILAKFLHWV)
binding affinity to HLA-A*0201 compared to the corresponding wild type peptide [4]: increase in binding affinity

Molecule: IMIGVLVGV [CEA691]
immunogenicity (immune response against the natural target epitope) [3]: immunogenic

B1: hTERT.934, 9-mer, w.t. (LLDTRTLEV) (peptide)
peptide: LLDTRTLEV
notes: Fragment of hTERT (SwissProt O14746, printed); The range is worked out from the printed position and length
binding affinity (% of positive control) [5]: 30 % of the positive control

Molecule: VLYGPDTPIV (Anchor-modified analog of a CEA peptide) [CEA.589V10 (VLYGPDTPIV)]
binding result [6]: binds

B5: hTERT position 540, 9-mer, w.t. (ILAKFLHWL) (peptide)
peptide: ILAKFLHWL
notes: as for B1
binding affinity (% of positive control) [5]: 30 % of the positive control

Molecule: GLNRTTVTTV (Anchor-modified analog of a CEA peptide) [CEA.307V10 (GLNRTTVTTV)]
binding result [6]: binds

Molecule: GLSAGATVGV (Anchor-modified analog of a CEA peptide) [CEA.682V10 (GLSAGATVGV)]
binding result [6]: binds

B7: hTERT position 865, 9-mer, w.t. (RLVDDFLLV) (peptide)
peptide: RLVDDFLLV
notes: as for B1
binding affinity (% of positive control) [5]: 30 % of the positive control

B8: hTERT position 540, 10-mer, w.t. (ILAKFLHWLM) (peptide)
peptide: ILAKFLHWLM
notes: Fragment of hTERT (SwissProt O14746, printed)
binding affinity (% of positive control) [5]: 30 % of the positive control

Second part, the molecule after the results:

binding to HLA-A*0201 compared to wild-type counterpart [1]: marked increase of binding
Molecule: GLNRTTVTTV (Anchor-modified analog) [307V10]

binding affinity to HLA-A*0201 compared to the corresponding wild type peptide [4]: increase in binding affinity
Molecule: 540.V10: hTERT position 540 10-mer V10 analog of ILAKFLHWLM, SEQ ID NO 17 (ILAKFLHWLV)

binding to HLA-A*0201 compared to wild-type counterpart [1]: marked increase of binding
Molecule: GLMIGVLVGV (Anchor-modified analog) [690L2]

binding affinity to HLA-A*0201 compared to the corresponding wild type peptide [4]: increase in binding affinity
Molecule: 688.L2: hTERT position 688 10-mer L2 analog of RAWRTFVLRV, SEQ ID NO 20 (RLWRTFVLRV)

binding affinity (% of positive control) [5]: 30 % of the positive control
B2: hTERT position 986, 9-mer, w.t. (FLDLQVNSL) (peptide)
peptide: FLDLQVNSL
notes: as for B1

binding affinity (% of positive control) [5]: 30 % of the positive control
B3: hTERT position 688, 10-mer, w.t. (RAWRTFVLRV) (peptide)
peptide: RAWRTFVLRV
notes: as for B1

binding affinity (% of positive control) [5]: 30 % of the positive control
B4: hTERT position 30, 9-mer, w.t. (RLGPQGWRL) (peptide)
peptide: RLGPQGWRL
notes: as for B1

binding result [5]: binds
Molecule: ILAKFLHWV (type V9) [hTERT 540.V9 analog]

binding result [6]: binds
B6: CEA.690L2 (GLMIGVLVGV) (peptide)
peptide: GLMIGVLVGV
notes: Anchor-modified analog of a CEA peptide; leucine at position 2

binding result [7]: binds
Molecule: IMIGVLVGV (Wild type CEA 9-mer) [CEA.691 (IMIGVLVGV)]

binding result [5]: binds
Molecule: FLVDDFLLV (type F1) [hTERT 865.F1 analog]

binding affinity (% of positive control) [5]: 30 % of the positive control
B9: hTERT position 544, 10-mer, w.t. (FLHWLMSVYV) (peptide)
peptide: FLHWLMSVYV
notes: as for B1
